Patent publication US20220025010A1 (ANTAG THERAPEUTICS, published 2022)
Where no end group is shown, it is not given here. The star is where a group is joined. C16 diacid = O=C(O)CCCCCCCCCCCCCCC(=O)*

T1: human GIP receptor (human, UniProt P48546 22-466)
T1 sequence (looked up): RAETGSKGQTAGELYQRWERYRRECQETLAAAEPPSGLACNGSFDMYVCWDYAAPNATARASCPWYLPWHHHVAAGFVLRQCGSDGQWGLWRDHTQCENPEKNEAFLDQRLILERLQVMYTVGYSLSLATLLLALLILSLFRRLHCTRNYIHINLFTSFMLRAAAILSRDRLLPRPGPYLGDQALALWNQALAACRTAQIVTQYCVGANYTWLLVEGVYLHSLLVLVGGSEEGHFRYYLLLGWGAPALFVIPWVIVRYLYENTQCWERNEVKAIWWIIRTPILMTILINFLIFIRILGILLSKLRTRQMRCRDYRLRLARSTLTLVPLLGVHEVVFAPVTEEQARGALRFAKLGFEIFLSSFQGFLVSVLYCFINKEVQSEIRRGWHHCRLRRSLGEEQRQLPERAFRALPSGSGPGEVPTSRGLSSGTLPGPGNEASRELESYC

B1: AT271 (peptide)
peptide: SGTFISDYSIAMDRIKQQDFVNWLLAQR
HELM: PEPTIDE1{S.G.T.F.I.S.D.Y.S.I.A.M.D.R.I.K.Q.Q.D.F.V.N.W.L.L.A.Q.R}|PEPTIDE2{[O=C(O)CCCCCCCCCCCCCCC(=O)[*:2]].[gGlu].[O=C(COCCOCCN[*:1])[*:2]]}$PEPTIDE1,PEPTIDE2,16:R3-3:R2$$$V2.0; N-terminus assumed
SMILES: CC[C@H](C)[C@H](NC(=O)[C@H](CO)NC(=O)[C@H](Cc1ccc(O)cc1)NC(=O)[C@H](CC(=O)O)NC(=O)[C@H](CO)NC(=O)[C@@H](NC(=O)[C@H](Cc1ccccc1)NC(=O)[C@@H](NC(=O)CNC(=O)[C@@H](N)CO)[C@@H](C)O)[C@@H](C)CC)C(=O)N[C@@H](C)C(=O)N[C@@H](CCSC)C(=O)N[C@@H](CC(=O)O)C(=O)N[C@@H](CCCNC(=N)N)C(=O)N[C@H](C(=O)N[C@@H](CCCCNC(=O)COCCOCCNC(=O)CC[C@H](NC(=O)CCCCCCCCCCCCCCC(=O)O)C(=O)O)C(=O)N[C@@H](CCC(N)=O)C(=O)N[C@@H](CCC(N)=O)C(=O)N[C@@H](CC(=O)O)C(=O)N[C@@H](Cc1ccccc1)C(=O)N[C@H](C(=O)N[C@@H](CC(N)=O)C(=O)N[C@@H](Cc1c[nH]c2ccccc12)C(=O)N[C@@H](CC(C)C)C(=O)N[C@@H](CC(C)C)C(=O)N[C@@H](C)C(=O)N[C@@H](CCC(N)=O)C(=O)N[C@@H](CCCNC(=N)N)C(=O)O)C(C)C)[C@@H](C)CC
B2: AT261 (peptide)
peptide: PGTFISDYSIAMDRIK(C16 diacid)QQDFVNWLLAQR-OH
modifications: N-terminus assumed
SMILES: CC[C@H](C)[C@H](NC(=O)[C@H](CO)NC(=O)[C@H](Cc1ccc(O)cc1)NC(=O)[C@H](CC(=O)O)NC(=O)[C@H](CO)NC(=O)[C@@H](NC(=O)[C@H](Cc1ccccc1)NC(=O)[C@@H](NC(=O)CNC(=O)[C@@H]1CCCN1)[C@@H](C)O)[C@@H](C)CC)C(=O)N[C@@H](C)C(=O)N[C@@H](CCSC)C(=O)N[C@@H](CC(=O)O)C(=O)N[C@@H](CCCNC(=N)N)C(=O)N[C@H](C(=O)N[C@@H](CCCCNC(=O)CCCCCCCCCCCCCCC(=O)O)C(=O)N[C@@H](CCC(N)=O)C(=O)N[C@@H](CCC(N)=O)C(=O)N[C@@H](CC(=O)O)C(=O)N[C@@H](Cc1ccccc1)C(=O)N[C@H](C(=O)N[C@@H](CC(N)=O)C(=O)N[C@@H](Cc1c[nH]c2ccccc12)C(=O)N[C@@H](CC(C)C)C(=O)N[C@@H](CC(C)C)C(=O)N[C@@H](C)C(=O)N[C@@H](CCC(N)=O)C(=O)N[C@@H](CCCNC(=N)N)C(=O)O)C(C)C)[C@@H](C)CC
B3: AT267 (peptide)
peptide: PGTFISDYSIAMDRIKQQDFVNWLLAQR
HELM: PEPTIDE1{P.G.T.F.I.S.D.Y.S.I.A.M.D.R.I.K.Q.Q.D.F.V.N.W.L.L.A.Q.R}|PEPTIDE2{[O=C(O)CCCCCCCCCCCCCCC(=O)[*:2]].[gGlu]}$PEPTIDE1,PEPTIDE2,16:R3-2:R2$$$V2.0; N-terminus assumed
SMILES: CC[C@H](C)[C@H](NC(=O)[C@H](CO)NC(=O)[C@H](Cc1ccc(O)cc1)NC(=O)[C@H](CC(=O)O)NC(=O)[C@H](CO)NC(=O)[C@@H](NC(=O)[C@H](Cc1ccccc1)NC(=O)[C@@H](NC(=O)CNC(=O)[C@@H]1CCCN1)[C@@H](C)O)[C@@H](C)CC)C(=O)N[C@@H](C)C(=O)N[C@@H](CCSC)C(=O)N[C@@H](CC(=O)O)C(=O)N[C@@H](CCCNC(=N)N)C(=O)N[C@H](C(=O)N[C@@H](CCCCNC(=O)CC[C@H](NC(=O)CCCCCCCCCCCCCCC(=O)O)C(=O)O)C(=O)N[C@@H](CCC(N)=O)C(=O)N[C@@H](CCC(N)=O)C(=O)N[C@@H](CC(=O)O)C(=O)N[C@@H](Cc1ccccc1)C(=O)N[C@H](C(=O)N[C@@H](CC(N)=O)C(=O)N[C@@H](Cc1c[nH]c2ccccc12)C(=O)N[C@@H](CC(C)C)C(=O)N[C@@H](CC(C)C)C(=O)N[C@@H](C)C(=O)N[C@@H](CCC(N)=O)C(=O)N[C@@H](CCCNC(=N)N)C(=O)O)C(C)C)[C@@H](C)CC
B4: AT259 (peptide)
peptide: SGTFISDYSIAMDRIK(C16 diacid)QQDFVNWLLAQR-OH
modifications: N-terminus assumed
SMILES: CC[C@H](C)[C@H](NC(=O)[C@H](CO)NC(=O)[C@H](Cc1ccc(O)cc1)NC(=O)[C@H](CC(=O)O)NC(=O)[C@H](CO)NC(=O)[C@@H](NC(=O)[C@H](Cc1ccccc1)NC(=O)[C@@H](NC(=O)CNC(=O)[C@@H](N)CO)[C@@H](C)O)[C@@H](C)CC)C(=O)N[C@@H](C)C(=O)N[C@@H](CCSC)C(=O)N[C@@H](CC(=O)O)C(=O)N[C@@H](CCCNC(=N)N)C(=O)N[C@H](C(=O)N[C@@H](CCCCNC(=O)CCCCCCCCCCCCCCC(=O)O)C(=O)N[C@@H](CCC(N)=O)C(=O)N[C@@H](CCC(N)=O)C(=O)N[C@@H](CC(=O)O)C(=O)N[C@@H](Cc1ccccc1)C(=O)N[C@H](C(=O)N[C@@H](CC(N)=O)C(=O)N[C@@H](Cc1c[nH]c2ccccc12)C(=O)N[C@@H](CC(C)C)C(=O)N[C@@H](CC(C)C)C(=O)N[C@@H](C)C(=O)N[C@@H](CCC(N)=O)C(=O)N[C@@H](CCCNC(=N)N)C(=O)O)C(C)C)[C@@H](C)CC
B5: AT273 (peptide)
peptide: PGTFISDYSIAMDRIKQQDFVNWLLAQR
HELM: PEPTIDE1{P.G.T.F.I.S.D.Y.S.I.A.M.D.R.I.K.Q.Q.D.F.V.N.W.L.L.A.Q.R}|PEPTIDE2{[O=C(O)CCCCCCCCCCCCCCC(=O)[*:2]].[gGlu].[O=C(COCCOCCN[*:1])[*:2]]}$PEPTIDE1,PEPTIDE2,16:R3-3:R2$$$V2.0; N-terminus assumed
SMILES: CC[C@H](C)[C@H](NC(=O)[C@H](CO)NC(=O)[C@H](Cc1ccc(O)cc1)NC(=O)[C@H](CC(=O)O)NC(=O)[C@H](CO)NC(=O)[C@@H](NC(=O)[C@H](Cc1ccccc1)NC(=O)[C@@H](NC(=O)CNC(=O)[C@@H]1CCCN1)[C@@H](C)O)[C@@H](C)CC)C(=O)N[C@@H](C)C(=O)N[C@@H](CCSC)C(=O)N[C@@H](CC(=O)O)C(=O)N[C@@H](CCCNC(=N)N)C(=O)N[C@H](C(=O)N[C@@H](CCCCNC(=O)COCCOCCNC(=O)CC[C@H](NC(=O)CCCCCCCCCCCCCCC(=O)O)C(=O)O)C(=O)N[C@@H](CCC(N)=O)C(=O)N[C@@H](CCC(N)=O)C(=O)N[C@@H](CC(=O)O)C(=O)N[C@@H](Cc1ccccc1)C(=O)N[C@H](C(=O)N[C@@H](CC(N)=O)C(=O)N[C@@H](Cc1c[nH]c2ccccc12)C(=O)N[C@@H](CC(C)C)C(=O)N[C@@H](CC(C)C)C(=O)N[C@@H](C)C(=O)N[C@@H](CCC(N)=O)C(=O)N[C@@H](CCCNC(=N)N)C(=O)O)C(C)C)[C@@H](C)CC
B6: AT269 (peptide)
peptide: GGTFISDYSIAMDRIKQQDFVNWLLAQR
HELM: PEPTIDE1{G.G.T.F.I.S.D.Y.S.I.A.M.D.R.I.K.Q.Q.D.F.V.N.W.L.L.A.Q.R}|PEPTIDE2{[O=C(O)CCCCCCCCCCCCCCC(=O)[*:2]].[gGlu].[O=C(COCCOCCN[*:1])[*:2]]}$PEPTIDE1,PEPTIDE2,16:R3-3:R2$$$V2.0; N-terminus assumed
SMILES: CC[C@H](C)[C@H](NC(=O)[C@H](CO)NC(=O)[C@H](Cc1ccc(O)cc1)NC(=O)[C@H](CC(=O)O)NC(=O)[C@H](CO)NC(=O)[C@@H](NC(=O)[C@H](Cc1ccccc1)NC(=O)[C@@H](NC(=O)CNC(=O)CN)[C@@H](C)O)[C@@H](C)CC)C(=O)N[C@@H](C)C(=O)N[C@@H](CCSC)C(=O)N[C@@H](CC(=O)O)C(=O)N[C@@H](CCCNC(=N)N)C(=O)N[C@H](C(=O)N[C@@H](CCCCNC(=O)COCCOCCNC(=O)CC[C@H](NC(=O)CCCCCCCCCCCCCCC(=O)O)C(=O)O)C(=O)N[C@@H](CCC(N)=O)C(=O)N[C@@H](CCC(N)=O)C(=O)N[C@@H](CC(=O)O)C(=O)N[C@@H](Cc1ccccc1)C(=O)N[C@H](C(=O)N[C@@H](CC(N)=O)C(=O)N[C@@H](Cc1c[nH]c2ccccc12)C(=O)N[C@@H](CC(C)C)C(=O)N[C@@H](CC(C)C)C(=O)N[C@@H](C)C(=O)N[C@@H](CCC(N)=O)C(=O)N[C@@H](CCCNC(=N)N)C(=O)O)C(C)C)[C@@H](C)CC

Molecular target: T1, human GIP receptor
Assay: cell-based or functional assay

Row | Binder | CisBio cAMP agonism % Efficacy [%] | CisBio cAMP antagonism % inhib [%] | CisBio cAMP antagonism IC50 [nM] | CisBio cAMP antagonism pIC50 | DiscoveRx cAMP agonism Emax | DiscoveRx cAMP antagonism IC50 [nM] | DiscoveRx cAMP antagonism log IC50 [log M]
1 | B1 | 2 | 73 | 85.8 | 7.1 | 9 | 71 | -7.2
2 | B2 | 0 | 62 | 200 | 6.7 | 24 | 46 | -7.3
3 | B3 | 4 | 52 | 736 | 6.1 | 16 | 123 | -6.9
4 | B4 | 9 | 72 | 58.4 | 7.2 | 20 | 19 | -7.7
5 | B5 | 0 | – | – | – | 35 | 634 | -6.2
6 | B6 | 0 | – | – | – | 12 | 91 | -7
